Reference: US20040137592

What was measured:
[1] = tested on: hUpf1/SMG-2 fusion protein (S1096) [GST: P08515]
[2] = target: MBP fusion protein of the hUpf1/SMG-2 partial fragment at the C-terminal side (UniProt Q92900)
[3] = tested on: fusion protein of the 14mer peptide (control) including S15 in the p53 protein and GST [GST: P08515]
[4] = tested on: GST fusion protein including S1078 (14mer peptide of hUpf1/SMG-2) [GST: P08515]
[5] = target: MBP fusion protein of the hUpf1/SMG-2 partial fragment at the N-terminal side (UniProt Q92900)
[6] = target: HA tagged hUpf1/SMG-2 (UniProt Q92900)

## 6H-hSMG-1 (fusion protein of human SMG-1 partial fragment 107-3657 and His tag)
[1]
  phosphorylation of substrate (in vitro kinase assay, 32P autoradiography): the GST fusion protein including S1078 or the GST fusion protein including S1096 ... was efficiently phosphorylated by 6H-hSMG-1
[2]
  phosphorylation of substrate (in vitro kinase assay, 32P autoradiography): the fragments of hUpf1/SMG-2 at the C-terminal side and at the N-terminal side performed the role of good substrates for hSMG-1
[3]
  phosphorylation of substrate (in vitro kinase assay, 32P autoradiography): the control construct encoding the SQ motif in the p53 protein was phosphorylated by hSMG-1
[4]
  phosphorylation of substrate (in vitro kinase assay, 32P autoradiography): the GST fusion protein including S1078 or the GST fusion protein including S1096 ... was efficiently phosphorylated by 6H-hSMG-1
[5]
  phosphorylation of substrate (in vitro kinase assay, 32P autoradiography): the fragments of hUpf1/SMG-2 at the C-terminal side and at the N-terminal side performed the role of good substrates for hSMG-1
[6]
  phosphorylation of substrate (in vitro kinase assay, 32P autoradiography): purified 6H-hSMG-1 phosphorylated HA-hUpf1/SMG-2
